Read-outs that look alike come from different tables or passages of the source. Non-standard residues stand in square brackets, D forms with d. Residues, ends and D or L forms follow the SMILES beside them. *: point of attachment. X1 = NC(=O)NNC(=O)[C@@H]1CCCN1C[C@H](Cc1ccc(C(=O)c2ccccc2)cc1)N*; DOTA = O=C(O)CN1CCN(CC(=O)O)CCN(CC(=O)*)CCN(CC(=O)O)CC1; Bpa = N[C@@H](Cc1ccc(C(=O)c2ccccc2)cc1)C(=O)O; d2Nal = N[C@H](Cc1ccc2ccccc2c1)C(=O)O; pGlu = O=C1CC[C@@H](C(=O)O)N1; DO3A10CM = not defined here; Bpa4 = non-natural residue; Ampt4 = not defined here; azaGly = NNC(=O)O

A short description of data set [1]: In vitro metabolic stability in mouse liver homogenate at 37° C. The conditions noted are these: for remaining at 1 h, 0.3 mg/mL: female, Tac:NCr:Foxn1nu/nu, mouse, tissue homogenate, pH 7.2. The format is in vitro ADME. The method, then: Livers from 10 female Tac:NCr:Foxn1^nu/nu mice were excised, rinsed with ice cold PBS (no Ca^++ or Mg^++) and weighed. The tissues were minced with scissors in Petri dishes on ice with Tris buffered saline (Pierce BupH™ Tris buffered saline packs, #28376; 25 mM Tris, 150 mM NaCl, pH 7.2). After mincing, the tissues were dounce homogenized, and the total volume adjusted with ice cold Tris buffer (4 mL for every gram of excised tissue). The homogenate was centrifuged at ˜4000×g for 10 min at 4° C. The supernatants were aliquoted into Eppendorf tubes on ice (200 and 100 μl volumes) and stored at −80° C. Kidney homogenates were similarly prepared. […] The mixture was centrifuged at 4° C. for 20 min at 20,000×g to precipitate the protein; 10 μL (˜7.6 μCi) of the supernatant was injected into the HPLC for the analysis. […] Peaks at these retention times were also observed in the in vivo plasma sample (FIG. 1). […] After 0 and 60 min, the sample was removed from the incubator, immediately cooled on ice and 2 μL of 10 mM EDTA and 0.2 mL of ice-cooled MeOH were added, mixing after each addition. The proteins in the sample were separated by centrifugation at 14,000 rpm for 20 min. The supernatant was harvested and, in the samples spiked with the ^177Lu-analog, the radioactivity was measured using a Capintec dose calibrator to determine recovery. The sample was then analyzed by HPLC. […] After 0 and 60 min, the sample was removed from the incubator, immediately cooled on ice and 2 μL of 10 mM EDTA and 0.24 mL of ice-cooled methanol was added, mixing after each addition. The proteins in the sample were separated by centrifugation at 14,000 rpm for 20 min. The supernatant was collected and analyzed by LC/MS as described earlier herein.

Data set [2] deals with LHRH binding sites on human ovarian cancer cells (EFO-27).
Data set [3] addresses LHRH receptor (LHRH binding sites) on EFO-27 human ovarian cancer cells (human). The experiment in a line: competition with [125I-Tyr8]BRU-2477, EFO-27 cells.
For data set [4] the target is unchanged. Briefly: competition with [125I-Tyr8]BRU-2477 for binding to EFO-27 cells.
Data set [5] addresses LHRH binding sites on EFO-27 human ovarian cancer cells (human). Briefly: competition with [125I-Tyr8]BRU-2477 on EFO-27 cells.
Setting [6] is: Table 19: analogs used in the stabilization studies.

`N=C(N)NCCC[C@@H](NC(=O)[C@H](Cc1c[nH]cn1)NC(=O)[C@H](CO)NC(=O)[C@H](Cc1c[nH]c2ccccc12)NC(=O)[C@H](Cc1c[nH]cn1)NC(=O)[C@@H]1CCC(=O)N1)C(=O)N[C@@H](Cc1c[nH]c2ccccc12)C(=O)N[C@@H](Cc1ccc(O)cc1)C(=O)N1CSC[C@H]1C(=O)NNC(N)=O` [BRU-3124] (HELM PEPTIDE1{[Glp].H.W.S.H.[dR].W.Y.[O=C([C@@H]1CSCN1[*:1])[*:2]].[O=C(NN[*:1])[*:2]].[am]}$$$$V2.0): in data set [1], the amount remaining at 1 h, 0.3 mg/mL turned out to be 38.7 ± 5.9%.
For `N=C(N)NCCC[C@H](NC(=O)[C@@H](Cc1ccc2ccccc2c1)NC(=O)CN1CCN(CC(=O)O)CCN(CC(=O)O)CCN(CC(=O)O)CC1)C(=O)N[C@@H](Cc1c[nH]c2ccccc12)C(=O)N[C@@H](CO)C(=O)N[C@@H](Cc1c[nH]cn1)C(=O)N[C@H](CCCNC(=N)N)C(=O)N[C@@H](Cc1c[nH]c2ccccc12)C(=O)N[C@@H](Cc1ccc(C(=O)c2ccccc2)cc1)C(=O)N1C[C@H](F)C[C@H]1C(=O)NNC(N)=O` [Lu-BRU-2994], in data set [1], the fraction remaining at 1 h, 0.3 mg/mL came to 45.7 ± 1.2%. For the same molecule, a half-maximal effect in data set [2] (Table 22, unit inferred) (EC50) was put at 600 nM.
The molecule `N=C(N)NCCC[C@@H](NC(=O)[C@H](Cc1c[nH]cn1)NC(=O)[C@H](CO)NC(=O)[C@H](Cc1c[nH]c2ccccc12)NC(=O)[C@H](Cc1c[nH]cn1)NC(=O)[C@@H]1CCC(=O)N1)C(=O)N[C@@H](Cc1c[nH]c2ccccc12)C(=O)N[C@@H](Cc1ccc(O)cc1)CN1CCC[C@H]1C(=O)NNC(N)=O` [BRU-3122] showed a fraction remaining at 1 h, 0.3 mg/mL in data set [1] of 100%. In data set [2] (setting [6]), this molecule displayed an EC50 of 3130 nM.
For `N=C(N)NCCC[C@@H](NC(=O)[C@H](Cc1c[nH]cn1)NC(=O)[C@H](CO)NC(=O)[C@H](Cc1c[nH]c2ccccc12)NC(=O)[C@H](Cc1c[nH]cn1)NC(=O)[C@@H]1CCC(=O)N1)C(=O)N[C@@H](Cc1c[nH]c2ccccc12)C(=O)N[C@@H](Cc1ccc(O)cc1)C(=O)N1C[C@@H](N)C[C@H]1C(=O)NNC(N)=O` [BRU-3123] (HELM PEPTIDE1{[Glp].H.W.S.H.[dR].W.Y.[N[C@H]1C[C@@H](C(=O)[*:2])N([*:1])C1].[O=C(NN[*:1])[*:2]].[am]}$$$$V2.0) the same measures were 100% and 990 nM.
For the molecule `N=C(N)NCCC[C@H](NC(=O)[C@@H](Cc1ccc2ccccc2c1)NC(=O)CN1CCN(CC(=O)O)CCN(CC(=O)O)CCN(CC(=O)O)CC1)C(=O)N[C@@H](Cc1c[nH]c2ccccc12)C(=O)N[C@@H](CO)C(=O)N[C@@H](Cc1c[nH]cn1)C(=O)N[C@H](CCCNC(=N)N)C(=O)N[C@@H](Cc1c[nH]c2ccccc12)C(=O)N[C@@H](Cc1ccc(C(=O)c2ccccc2)cc1)C(=O)N1C[C@H](N)C[C@H]1C(=O)NNC(N)=O` [BRU-2995], in data set [1], the “metabolism in liver homogenate” value was “no metabolism was observed”. Also, in data set [2] (setting [6]), the EC50 was 410 nM.
As for `N=C(N)NCCC[C@H](NC(=O)[C@@H](Cc1ccc2ccccc2c1)NC(=O)CN1CCN(CC(=O)O)CCN(CC(=O)O)CCN(CC(=O)O)CC1)C(=O)N[C@@H](Cc1c[nH]c2ccccc12)C(=O)N[C@@H](CO)C(=O)N[C@@H](Cc1c[nH]cn1)C(=O)N[C@H](CCCNC(=N)N)C(=O)N[C@@H](Cc1c[nH]c2ccccc12)C(=O)N[C@@H](Cc1ccc(C(=O)c2ccccc2)cc1)C(=O)N1CCCC[C@H]1C(=O)NNC(N)=O` [Lu-BRU-2996], in data set [1], the share remaining at 1 h, 0.3 mg/mL worked out at 71.7 ± 2.9%.
Turning to `N=C(N)NCCC[C@H](NC(=O)[C@@H](Cc1ccc2ccccc2c1)NC(=O)CN1CCN(CC(=O)O)CCN(CC(=O)O)CCN(CC(=O)O)CC1)C(=O)N[C@@H](Cc1c[nH]c2ccccc12)C(=O)N[C@@H](CO)C(=O)N[C@@H](Cc1c[nH]cn1)C(=O)N[C@H](CCCNC(=N)N)C(=O)N[C@@H](Cc1c[nH]c2ccccc12)C(=O)N[C@@H](Cc1ccc(C(=O)c2ccccc2)cc1)C(=O)N1CSC[C@H]1C(N)=O` [BRU-3072], the “metabolism in liver homogenate” value in data set [1] (37° C. for 60 min, Lu complexes of DO3A10CM peptides, unlabeled BRU-2477 derivatives) is “no metabolism was observed”. Further, the “times more potent than the comparator analog” value in data set [2] (BRU-2441 vs BRU-2439, BRU-2666 vs Sar1 analog, BRU-3072 vs Pro9 analog) is given as approximately 2.5.
Regarding `N=C(N)NCCC[C@H](NC(=O)[C@@H](Cc1ccc2ccccc2c1)NC(=O)CN1CCN(CC(=O)O)CCN(CC(=O)O)CCN(CC(=O)O)CC1)C(=O)N[C@@H](Cc1c[nH]c2ccccc12)C(=O)N[C@@H](CO)C(=O)N[C@@H](Cc1c[nH]cn1)C(=O)N[C@H](CCCNC(=N)N)C(=O)N[C@@H](Cc1c[nH]c2ccccc12)C(=O)N[C@@H](Cc1ccc(C(=O)c2ccccc2)cc1)CN1CCC[C@H]1C(=O)NNC(N)=O` [BRU-3081] ({DOTA}-[d2Nal]RWSH[dR]W-X1), in data set [1], the “metabolism in liver homogenate” value is recorded as “no metabolism was observed”. Besides, it took 300 nM to reach a half-maximal effect in data set [2] (setting [6]) (EC50).
`N=C(N)NCCC[C@@H](NC(=O)[C@H](Cc1c[nH]cn1)NC(=O)[C@H](CO)NC(=O)[C@H](Cc1c[nH]c2ccccc12)NC(=O)[C@H](Cc1c[nH]cn1)NC(=O)[C@@H]1CCC(=O)N1)C(=O)N[C@@H](Cc1c[nH]c2ccccc12)C(=O)N[C@@H](Cc1ccc(O)cc1)C(=O)N1CCC[C@H]1C(=O)NNC(N)=O` [BRU-2477, pGlu-His-Trp-Ser-His-Darg-Trp-Tyr-Pro-azaGly-NH2, reference compound] (HELM PEPTIDE1{[Glp].H.W.S.H.[dR].W.Y.P.[O=C(NN[*:1])[*:2]].[am]}$$$$V2.0) gave a share remaining at 1 h, 0.3 mg/mL in data set [1] of 11.9 ± 2.4%. Moreover, the EC50 stood at 740 nM in data set [2] (EFO-27 cells, competition with [125I-Tyr8]BRU-2477, 90 min) and 840 nM in data set [2] (setting [6]).
Molecule `N=C(N)NCCC[C@H](NC(=O)[C@@H](Cc1ccc2ccccc2c1)NC(=O)CN1CCN(CC(=O)O)CCN(CC(=O)O)CCN(CC(=O)O)CC1)C(=O)N[C@@H](Cc1c[nH]c2ccccc12)C(=O)N[C@@H](CO)C(=O)N[C@@H](Cc1c[nH]cn1)C(=O)N[C@H](CCCNC(=N)N)C(=O)N[C@@H](Cc1c[nH]c2ccccc12)C(=O)N[C@@H](Cc1ccc(C(=O)c2ccccc2)cc1)C(=O)N1C[C@H](N)C[C@H]1C(=O)NNC(N)=O` [Lu-BRU-2995] returned a fraction remaining at 1 h, 0.3 mg/mL in data set [1] of 98.7 ± 0.1%.

B1: BRU-3081 (peptide)
peptide: XRWSHXWXPX
modifications: N-terminal DO3A10CM; Dnal2 at 1; Darg at 6; Bpa4-psi(CH2N)-Pro reduced amide isostere at 8-9; azaGly-NH2 at 10
B1: the EC50 in data set [3] and in data set [4] was 300 nM each time.

B2: BRU-3046 (peptide)
peptide: XRWSHXW
modifications: as printed: DO3A10CM-Dnal2-Arg-Trp-Ser-His-Darg-Trp-OH
B2: the EC50 in data set [4] was determined as 15800 nM.

B3: BRU-2477 (peptide)
peptide: [pGlu]HWSH[dR]WYP[azaGly]-NH2
Take B3: the EC50 was determined as 740 nM in data set [5] and 840 nM in data set [4].

B4: BRU-2993 (peptide)
peptide: XRWSHXWXXX
modifications: N-terminal DO3A10CM; Dnal2 at 1; Darg at 6; Bpa4 at 8; Aze at 9; azaGly-NH2 at 10
Turning to B4, the EC50 in data set [3], in data set [5] and in data set [4] was 380 nM in each case.

B5: BRU-2994 (peptide)
peptide: XRWSHXWXXX
modifications: N-terminal DO3A10CM; Dnal2 at 1; Darg at 6; Bpa4 at 8; Flp4 at 9; azaGly-NH2 at 10
As to B5, the EC50 in data set [3], in data set [5] and in data set [4] was 600 nM each time.

B6: BRU-3122 (peptide)
peptide: [pGlu]HWSH[dR]WYP[azaGly]-NH2
modifications: also: reduced amide bond Ψ(CH2N) between Tyr8 and Pro9
For the molecule B6, in data set [4], the EC50 was found to be 3130 nM.

B7: BRU-3072 (peptide)
peptide: XRWSHXWXXX
modifications: N-terminal DO3A10CM; Dnal2 at 1; Darg at 6; Bpa4 at 8; Thz at 9; azaGly-NH2 at 10
With B7, the EC50 in data set [3], in data set [5] and in data set [4] was 160 nM each time. In addition, in data set [5], the fold improved binding against the Pro9 analog (BRU-2813) worked out at 2.5 fold.

B8: BRU-3064 (peptide)
peptide: DO3A10CM-[d2Nal]RWSH[dR]W[Bpa4]-OH
modifications: reading uncertain; also: printed as DO3A10CM-Dnal2-Arg-Trp-Ser-His-Darg-Trp-Bpa4-OH
Molecule B8 gave an EC50 in data set [4] of 720 nM.

B9: BRU-2996 (peptide)
peptide: XRWSHXWXXX
modifications: N-terminal DO3A10CM; Dnal2 at 1; Darg at 6; Bpa4 at 8; Pip at 9; azaGly-NH2 at 10
Regarding B9, the EC50 in data set [3], in data set [5] and in data set [4] was 350 nM throughout.

B10: BRU-2995 (peptide)
peptide: DO3A10CM-[d2Nal]RWSH[dR]W[Bpa][Ampt4][azaGly]-NH2
modifications: reading uncertain; also: printed as DO3A10CM-Dnal2-Arg-Trp-Ser-His-Darg-Trp-Bpa4-Ampt4-azaGly-NH2
For the molecule B10, the EC50 in data set [3], in data set [5] and in data set [4] was 410 nM each time.

(Values after patent publication US20120045393A1 (priority 2009, published 2012).)
